The results in this text go back to US20110262448A1 (Bristol-Myers Squibb, published 2011).

The target in experiment [1] is T1, hu mesothelin-his fusion protein (human, UniProt Q13421 296-598, limits assumed).
T1 construct: domain: 40 kD portion of mesothelin; Soluble fusion protein secreted by transfected CHO cells; also called recombinant soluble mesothelin his-fusion protein; recombinant human mesothelin His-fusion protein; not shown: His tag at the C-terminus
Briefly: BIAcore SPR, antibody captured on protein G chip, mesothelin His-fusion protein injected. As for the experimental part:
The binding of the 3C10, 6A4 and 7B1 antibodies to recombinant soluble mesothelin his-fusion protein was examined by BIAcore™ using a capture method. The 3C10, 6A4 and 7B1 antibodies each were separately captured on a protein G (Pierce, Rockford, Ill.) coated CM5 chip at high density (4000 RUs). The coating was performed based on the standard immobilization procedure recommended by the manufacturer. After the 3C10, 6A4 or 7B1 purified antibody was captured on protein G, a concentration series of recombinant human mesothelin His-fusion protein (450, 225, 112.5, 56, and 28 nM) was injected over the captured antibody for 2 minutes at a flow rate of […]. The antigen was allowed to dissociate for 8 minutes. Isotype controls were run on the chip, and the data used to subtract non-specific binding. All the analyses were carried out on a Biacore 2000 or 3000 surface plasmon resonance instrument, using BIAcore Control software v 4.01. Data was analyzed using BiaEvaluation v4.01 software.
(In general: SPR reads the build-up and loss of mass on a sensor chip optically.)

Experiment [2] concerns the target T2, cell-surface human mesothelin (naturally expressed on OVCAR3, NCI-H226, CFPAC-1 and KB cells and on human … (human, UniProt Q13421 296-598)).
T2 construct: whole, on cells; Endogenously expressed on the cell lines; also called cell surface mesothelin
Briefly: flow cytometry on NCI-H226 cells. As for the experimental part:
(§1) To test the ability of the antibodies to bind to cell surface mesothelin protein, the antibodies were incubated with four different mesothelin-expressing cells: OVCAR3 (ATCC Designation HTB-161, a human ovarian cancer cell line), NCI-H226 (ATCC Designation CRL-5826, a human lung-derived mesothelioma), CFPAC-1 (ATCC Designation CRL-1918, a human pancreatic cancer cell line), and KB (ATCC Designation CCL-17, a human oral carcinoma cell line). For the flow cytometry studies, the 3C10, 6A4 and 7B1 monoclonal antibodies were diluted with cold 1×PBS+0.1% BSA to 40 μg/mL. For the binding reaction, 50 μl of diluted antibody solution was added to a 50 μl cell suspension containing 4×10⁵ cells and the mixture was incubated on ice for 30-60 minutes. The cells were then washed three times with 1×PBS+0.1% BSA. A 1:50 dilution of R-phycoerythrin-labeled goat anti-human IgG Fγ F(ab)₂ fragment (Jackson ImmunoResearch Labs, Cat. #109-116-098) was added and the mixture was incubated on ice for 1 hour, followed by washing twice with cold 1×PBS+0.1% BSA. After the final wash, 200 μl of cold 1×PBS+0.1% BSA was added to each solution and analysis of antibody binding was carried out by FACS.
A general note: A flow cytometer gives signals particle by particle.

Experiment [3] addresses T2, cell-surface human mesothelin …. The experiment is described as follows: flow cytometry on CFPAC-1 cells. The protocol: as §1
The target is the same in experiment [4]. The experiment is described as follows: flow cytometry on OVCAR3 cells. As for the experimental part: as §1
Experiment [5] has the same target. Briefly: flow cytometry on KB cells. As for the experimental part:
as §1

Experiment [6] addresses mesothelin on CHO-mesothelin cells (CHO cells transfected to express the 40 kD membrane-associated portion of … (UniProt Q13421 296-598, limits assumed)). Briefly: cell-based or functional assay.

Where a chain is given by its changes, count along the chain named.

T1 sequence (Q13421 other isoform, or with tags, fused parts or gaps limits assumed): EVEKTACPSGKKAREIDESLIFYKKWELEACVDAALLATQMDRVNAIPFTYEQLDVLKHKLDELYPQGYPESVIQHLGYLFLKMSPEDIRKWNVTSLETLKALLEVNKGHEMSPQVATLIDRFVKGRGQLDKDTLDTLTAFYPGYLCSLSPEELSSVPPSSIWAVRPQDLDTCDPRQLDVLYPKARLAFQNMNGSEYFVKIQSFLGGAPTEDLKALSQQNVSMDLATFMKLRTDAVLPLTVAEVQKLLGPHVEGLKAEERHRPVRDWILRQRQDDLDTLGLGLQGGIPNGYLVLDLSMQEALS
T2 sequence (Q13421 other isoform, or with tags, fused parts or gaps limits assumed): as above
Sequence of mesothelin on CHO-mesothelin cells (CHO cells transfected to express the 40 kD membrane-associated portion of … (Q13421 other isoform, or with tags, fused parts or gaps limits assumed): as above

B1: human monoclonal antibody 3C10 (antibody, IgG1, V domains shown)
VH: QVYLVESGGGVVQPGRSLRLSCAASGITFSIYGMHWVRQAPGKGLEWVAVIWYDGSHEYYADSVKGRFTISRDNSKNTLYLLMNSLRAEDTAVYYCARDGDYYDSGSPLDYWGQGTLVTVSS
VL: EIVLTQSPATLSLSPGERATLSCRASQSVSSYLAWYQQKPGQAPRLLIYDASNRATGIPARFSGSGSGTDFTLTISSLEPEDFAVYYCQQRSNWPLTFGGGTKVEIK
notes: hybridoma-derived purified antibody; also called 3C10 mAb; 1382.210.3C10.1.6
For the molecule B1, the Kd in experiment [1] is 5800 pM. Besides, the koff in experiment [1] was 0.000362 s⁻¹. The on-rate constant (kon) in experiment [1] worked out at 63000 M⁻¹ s⁻¹. Also, the EC50 in experiment [2] was 197 pM; in experiment [3], 193 pM; in experiment [4] it was 213 pM; in experiment [5], 144 pM.

B2: human monoclonal antibody 6A4 (antibody, IgG1, V domains shown)
VH: B1 VH with Y3H, A23V, S30R, I51L, L82Q, V93I
VL: B1 VL
notes: also called 6A4 mAb; 1382.210.6A4.1.6
As for B2, the “Antibody Dependent Cellular Cytotoxicity, EC50 (nM), CHO-mesothelin target cells” value in experiment [6] is 63.1 nM. The same molecule had a Kd in experiment [1] of 5900 pM. In experiment [1], this molecule yielded a koff of 0.000377 s⁻¹. The same molecule gave a kon in experiment [1] of 63900 M⁻¹ s⁻¹. The EC50 in experiment [2] was found to be 156 pM; in experiment [3] it was 193 pM; in experiment [4], 170 pM; in experiment [5] it was 182 pM.

B3: human monoclonal antibody 7B1 (antibody, V domains shown)
VH: EVHLVESGGGLVQPGGSLRLSCAASGFTFSRYWMSWVRQAQGKGLEWVASIKQAGSEKTYVDSVKGRFTISRDNAKNSLSLQMNSLRAEDTAVYYCAREGAYYYDSASYYPYYYYYSMDVWGQGTTVTVSS
VL: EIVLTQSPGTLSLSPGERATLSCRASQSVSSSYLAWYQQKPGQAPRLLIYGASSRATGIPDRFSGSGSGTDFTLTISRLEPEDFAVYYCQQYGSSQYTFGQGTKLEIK
notes: also called 7B1 mAb; 1382.210.7B1.2.18
In turn, B3 gave an equilibrium dissociation constant (Kd) in experiment [1] of 2400 pM. For the same molecule, the koff in experiment [1] was 0.000171 s⁻¹. In experiment [1], this molecule registered an on-rate (kon) of 71500 M⁻¹ s⁻¹. In addition, the 50% effective concentration (EC50) in experiment [2] is 664 pM; in experiment [3], 64.3 pM; in experiment [4], 110 pM; in experiment [5], 67.9 pM.

Usually Kd stands for the concentration at which binding is half-saturated. Lower therefore signals a tighter complex. In general, koff refers to the first-order rate constant of dissociation. In general, kon refers to the rate constant with which the complex forms. High values mean faster complex formation, low ones slower complex formation. The EC50 is the concentration that produces a half-maximal response. High values mean a less potent agent, low ones a more potent agent.
